Test results reported in patent US20250296971A1, “GASTRIC INHIBITORY PEPTIDE RECEPTOR LIGANDS” (priority 2021, published 2025).
*1 amine or outer side, *2 acyl side, *3 side chain or, on linkers, in order; H or OH if unused. Bridges are numbered along the chain shown (N, C = ends). Where no end group is shown, it is not given here. [ ]: non-standard residue; d: D form. The star is where a group is joined. Ttds = 1,13-diamino-4,7,10-trioxatridecan-succinamic acid, NCCCOCCOCCOCCCNC(=O)CCC(=O)*; DOTA(Ga) = O=C1CN2CCN3CCN(CC(=O)*)CCN(CC2)CC(=O)[O][Ga]([O]1)[O]C(=O)C3; DOTA(In) = O=C1CN2CCN3CCN(CC(=O)*)CCN(CC2)CC(=O)[O][In]([O]1)[O]C(=O)C3; dE(AGLU) = D-glutamic acid bearing 1-amino-1-deoxy-D-glucitol; Pro(trans-4-NH2) = O=C([C@@H]1C[C@@H](N[*:3])CN1[*:1])[*:2]; DOTA = O=C(O)CN1CCN(CC(=O)O)CCN(CC(=O)*)CCN(CC(=O)O)CC1; 2Lut = 2,6-lutidylidene bridge between two thiols; Trp(5-Cl) = N[C@@H](Cc1c[nH]c2ccc(Cl)cc12)C(=O)O; Pyridine(2,6-diCH2) = c1cc(C[*:1])nc(C[*:2])c1; APAc = 4-amino-1-carboxymethylpiperidine; Pro(4S-NH2) = N[C@@H]1CN[C@H](C(=O)O)C1; Phe(2-Cl) = N[C@@H](Cc1ccccc1Cl)C(=O)O; mXylylene = c1cc(C[*:1])cc(C[*:2])c1; Glutaryl = O=C(CCCC(=O)[*:2])[*:1]; AGLU = 1-amino-1-deoxy-D-glucitol; Hyp = O=C(O)[C@@H]1C[C@@H](O)CN1; Cysteamide = C(CS[*:3])N[*:1]; dGlu(AGLU) = not defined here; Suc = O=C(CCC(=O)[*:2])[*:1]; GLUSEROL = not defined here; Api = NC1(C(=O)O)CCNCC1; Thp = NC1(C(=O)O)CCOCC1; Aib = CC(C)(N)C(=O)O

B1: DOTA-Ttds-Asp-Trp-5Clw-4Ap-Glu-leu-[Cys(3MeBn)-Aib-Leu-Ile-AET] (peptide)
peptide: {DOTA-Ttds}-DW[Trp(5-Cl)][Pro(4S-NH2)]E[dL]C[Aib]LI[Cysteamide]
modifications: linker 7-11 via mXylylene
B2: HO-Succinyl-Trp-5Clw-Hyp-Glu-leu-[Cys(2Lut)-Thp-Leu-Ile-Cys]-APAc-glu(AGLU)-Lys(DOTA)-NH2 (peptide)
peptide: Suc-W[Trp(5-Cl)][Hyp]E[dL]C[Thp]LIC-{APAc-dGlu(AGLU)-Lys(DOTA)-NH2}
modifications: linker 6-10 via 2Lut; reading uncertain; also: printed as HO-Succinyl-Trp-5Clw-Hyp-Glu-leu-[Cys(2Lut)-Thp-Leu-Ile-Cys]-APAc-glu(AGLU)-Lys(DOTA)-NH2
B3: AGLU-Glutar-Asp-Trp-5Clw-Hyp-Glu-leu-[Cys(2Lut)-Apc(InDOTA)-Leu-Ile-Cys]-APAc-glu(AGLU)-NH2 (peptide)
peptide: DWXXEXCXLIC
modifications: AGLU-Glutar; 5Clw; Hyp; D-leu; Apc(InDOTA); 2Lut bridge Cys-Cys; APAc; D-glu(AGLU); C-term NH2
B4: AGLU-Glutar-Asp-Trp-5Clw-Tap-Glu-leu-[Cys(2Lut)-Apc(InDOTA)-Leu-Ile-Cys]-APAc-glu(AGLU)-NH2 (peptide)
peptide: {AGLU-Glutaryl}-DW[Trp(5-Cl)][Pro(trans-4-NH2)]E[dL]C[Api](DOTA(In))LIC-{APAc-dE(AGLU)-NH2}
modifications: linker 7-11 via Pyridine(2,6-diCH2)
B5: AGLU-Glutar-Asp-Trp-5Clw-Hyp-Glu-leu-[Cys(2Lut)-Apc(DOTA)-Leu-Ile-Cys]-APAc-glu(AGLU)-NH2 (peptide)
peptide: DWXXEXCXLIC
modifications: AGLU-Glutar; 5Clw; Hyp; D-leu; Apc(DOTA); 2Lut bridge Cys-Cys; APAc; D-glu(AGLU); C-term NH2
B6: DOTA-Ttds-Asp-Trp-5Clw-Pro-Glu-leu-[Cys(3MeBn)-Aib-Leu-Ile-AET] (peptide)
peptide: {DOTA-Ttds}-DW[Trp(5-Cl)]PE[dL]C[Aib]LI[Cysteamide]
modifications: linker (positions not given here) via mXylylene; not fully specified (bridges); printed as DOTA-Ttds-Asp-Trp-5Clw-Pro-Glu-leu-[Cys(3MeBn)-Aib-Leu-Ile-AET]
B7: HO-Succinyl-Trp-5Clw-Tap-Glu-leu-[Cys(2Lut)-Apc-Leu-Ile-Cys]-APAc-glu(AGLU)-Lys(DOTA)-NH2 (peptide)
peptide: W[Trp(5-Cl)][Pro(trans-4-NH2)]E[dL]C[Api]LIC-{APAc-dE(AGLU)-K(DOTA)-NH2}
modifications: linker 6-10 via 2Lut; not fully specified (N-terminus); printed as HO-Succinyl-Trp-5Clw-Tap-Glu-leu-[Cys(2Lut)-Apc-Leu-Ile-Cys]-APAc-glu(AGLU)-Lys(DOTA)-NH2
B8: AGLU-Glutar-Asp-Trp-5Clw-Tap-Glu-leu-[Cys(2Lut)-Apc(GaDOTA)-Leu-Ile-Cys]-APAc-glu(AGLU)-NH2 (peptide)
peptide: {AGLU-Glutaryl}-DW[Trp(5-Cl)][Pro(trans-4-NH2)]E[dL]C[Api](DOTA(Ga))LIC-{APAc-dE(AGLU)-NH2}
modifications: linker 7-11 via Pyridine(2,6-diCH2)
B9: AGLU-Glutar-Asp-Trp-5Clw-Tap-Glu-leu-[Cys(2Lut)-Apc(DOTA)-Leu-Ile-Cys]-APAc-GLUSEROL (peptide)
peptide: {AGLU-Glutaryl}-DW[Trp(5-Cl)][Pro(trans-4-NH2)]E[dL]C[Api](DOTA)LIC-{APAc-GLUSEROL}
modifications: linker 7-11 via Pyridine(2,6-diCH2); reading uncertain
B10: DOTA-Ttds-Asp-Trp-5Clw-Pro-Glu-leu-[Cys(3MeBn)-Apc(Ac)-Leu-Ile-AET] (peptide)
peptide: {DOTA-Ttds}-DW[Trp(5-Cl)]PE[dL]C[Api](Ac)LI[Cysteamide]
modifications: linker (positions not given here) via mXylylene; not fully specified (bridges); printed as DOTA-Ttds-Asp-Trp-5Clw-Pro-Glu-leu-[Cys(3MeBn)-Apc(Ac)-Leu-Ile-AET]
B11: Ac-Asp-Ocf-5Clw-Hyp-Glu-leu-[Cys(2Lut)-Thp-Leu-Ile-Cys]-NH2 (peptide)
peptide: Ac-D[Phe(2-Cl)][Trp(5-Cl)][Hyp]E[dL]C[Thp]LIC-NH2
modifications: linker 7-11 via Pyridine(2,6-diCH2)

molecular target: biotinylated extracellular domain of the human GIP receptor (bioGIPR) (human) (UniProt P48546); assay: SPR single cycle kinetics, bioGIPR captured on chip; category A: pKD >9.0
Sequence (P48546 24-138 limits assumed): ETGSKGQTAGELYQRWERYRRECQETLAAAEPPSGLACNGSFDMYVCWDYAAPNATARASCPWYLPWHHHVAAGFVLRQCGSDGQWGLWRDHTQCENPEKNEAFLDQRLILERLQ

| pKD | Molecule |
| --- | --- |
| > 9 pkd | B1 |
| > 9 pkd | B2 |
| > 9 pkd | B3 |
| > 9 pkd | B4 |
| > 9 pkd | B5 |
| > 9 pkd | B6 |
| > 9 pkd | B7 |
| > 9 pkd | B8 |
| > 9 pkd | B9 |
| > 9 pkd | B10 |

molecular target: human Gastric Inhibitory Peptide Receptor (GIPR) (human) (UniProt P48546); assay: FACS competition vs biotinylated GIP-057 on CHO-K1-hGIPR cells; category B: pIC50 7.1-8.0
Sequence (P48546 22-466 limits assumed): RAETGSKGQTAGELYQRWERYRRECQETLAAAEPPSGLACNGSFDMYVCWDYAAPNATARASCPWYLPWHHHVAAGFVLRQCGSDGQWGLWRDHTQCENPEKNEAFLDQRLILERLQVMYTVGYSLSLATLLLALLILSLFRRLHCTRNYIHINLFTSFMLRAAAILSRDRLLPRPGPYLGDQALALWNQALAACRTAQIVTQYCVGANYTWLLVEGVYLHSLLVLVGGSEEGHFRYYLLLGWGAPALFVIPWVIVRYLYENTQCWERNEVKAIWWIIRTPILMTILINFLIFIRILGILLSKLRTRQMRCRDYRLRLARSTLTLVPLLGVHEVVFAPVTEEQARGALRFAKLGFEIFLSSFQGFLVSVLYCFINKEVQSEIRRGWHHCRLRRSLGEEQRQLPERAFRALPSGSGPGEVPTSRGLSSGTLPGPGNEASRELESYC

| pIC50 | Molecule |
| --- | --- |
| 7.1 to 8 pic50 | Ac-Asp-Trp-5Clw-Hyp-Glu-leu-[Cys(2Lut)-Apc(DOTA)-Leu-Phe-Cys]-NH2 (peptide) |
| 7.1 to 8 pic50 | B11 |

molecular target: human Gastric Inhibitory Peptide Receptor (GIPR) (human) (UniProt P48546); assay: FACS competition vs biotinylated GIP-057 on CHO-K1-hGIPR cells; category A: pIC50 >8.0

| pIC50 | Molecule |
| --- | --- |
| > 8 pic50 | B9 |

molecular target: biotinylated extracellular domain of the human GIP receptor (bioGIPR) (human) (UniProt P48546); assay: SPR single cycle kinetics, bioGIPR captured on chip; category A: t1/2 >15 min

| t1/2 | Molecule |
| --- | --- |
| > 15 min | B1 |
| > 15 min | B2 |
| > 15 min | B3 |
| > 15 min | B4 |
| > 15 min | B5 |
| > 15 min | B6 |
| > 15 min | B7 |
| > 15 min | B8 |
| > 15 min | B9 |
| > 15 min | B10 |

molecular target: human Gastric Inhibitory Peptide Receptor (human) (UniProt P48546); assay: FACS competition with GIP-057 on CHO-K1-hGIPR cells; pIC50 category A: >8.0
Sequence (P48546 22-466 limits assumed): as above

| pIC50 | Molecule |
| --- | --- |
| > 8 pic50 | B1 |
| > 8 pic50 | B2 |
| > 8 pic50 | B3 |
| > 8 pic50 | B4 |
| > 8 pic50 | B5 |
| > 8 pic50 | B6 |
| > 8 pic50 | B7 |
| > 8 pic50 | B8 |
| > 8 pic50 | B10 |
